Laboratory results from paper PMC5912162 (Bioconjugate chemistry, 2010).

How the values were obtained:
KRAS2 G12D 20-mer RNA = details: cited from earlier work
[1] = system: human CAPAN2 (G12 V) pancreatic cancer xenografts; details: mouse, in vivo
in vivo [2] = details: mouse, iv, 2 nmol, total radioactivity, Tissue distribution
in vivo [3] = details: mouse, iv, total radioactivity
[4] = mouse, in vivo

Compound	Tm (KRAS2 G12D 20-mer RNA)	Decrease of K/T ratio by added Gdn probes [1]	Decrease of kidney accumulation by added Gdn probes [1]	tissue uptake at 24 h (in vivo [2]; blood)	tissue uptake at 24 h (in vivo [2]; heart)	tissue uptake at 24 h (in vivo [2]; intestine)	tissue uptake at 24 h (in vivo [2]; kidneys)	tissue uptake at 24 h (in vivo [2]; liver)	tissue uptake at 24 h (in vivo [2]; lungs)	tissue uptake at 24 h (in vivo [2]; muscle)	tissue uptake at 24 h (in vivo [2]; spleen)	tissue uptake at 24 h (in vivo [2]; tumor)	tissue to tissue ratio at 24 h (in vivo [3])	Breakdown fragments in urine [4]	Free 111In (void volume peak) in urine, share of radioactivity [4]	Intact probe peak (eluting at 9 min) in urine, share of radioactivity [4]
(Gd-DOTA-AEEA)8-PDAP^3-AEEA2-GCCAaCAGCTCC-AEEA-D(Cys-Ser-Lys-Cys) (disulfide) [WT10144]	66.8 ± 0.9 °C															
Cc1cn(CC(=O)N(CCNC(=O)CN(CCNC(=O)CN(CCNC(=O)CN(CCNC(=O)CN(CCNC(=O)CN(CCNC(=O)CN(CCNC(=O)CN(CCNC(=O)CN(CCNC(=O)CN(CCNC(=O)COCCOCCNC(=O)COCCOCCNC(=O)[C@H](CNC(=O)[C@H](CNC(=O)[C@H](CNC(=O)COCCOCCNC(=O)CN2CCN(CC(=O)O)CCN(CC(=O)O)CCN(CC(=O)O)CC2)NC(=O)COCCOCCNC(=O)CN2CCN(CC(=O)O)CCN(CC(=O)O)CCN(CC(=O)O)CC2)NC(=O)[C@H](CNC(=O)COCCOCCNC(=O)CN2CCN(CC(=O)O)CCN(CC(=O)O)CCN(CC(=O)O)CC2)NC(=O)COCCOCCNC(=O)CN2CCN(CC(=O)O)CCN(CC(=O)O)CCN(CC(=O)O)CC2)NC(=O)[C@H](CNC(=O)[C@H](CNC(=O)COCCOCCNC(=O)CN2CCN(CC(=O)O)CCN(CC(=O)O)CCN(CC(=O)O)CC2)NC(=O)COCCOCCNC(=O)CN2CCN(CC(=O)O)CCN(CC(=O)O)CCN(CC(=O)O)CC2)NC(=O)[C@H](CNC(=O)COCCOCCNC(=O)CN2CCN(CC(=O)O)CCN(CC(=O)O)CCN(CC(=O)O)CC2)NC(=O)COCCOCCNC(=O)CN2CCN(CC(=O)O)CCN(CC(=O)O)CCN(CC(=O)O)CC2)C(=O)Cn2cnc3c(=O)[nH]c(N)nc32)C(=O)Cn2ccc(N)nc2=O)C(=O)Cn2ccc(N)nc2=O)C(=O)Cn2cnc3c(N)ncnc32)C(=O)Cn2cnc3c(N)ncnc32)C(=O)Cn2ccc(N)nc2=O)C(=O)Cn2cnc3c(N)ncnc32)C(=O)Cn2cnc3c(=O)[nH]c(N)nc32)C(=O)Cn2ccc(N)nc2=O)CC(=O)NCCN(CC(=O)NCCN(CC(=O)NCCOCCOCC(=O)N[C@@H]2CSSC[C@H](C(N)=O)NC(=O)[C@@H](CCCCN)NC(=O)[C@@H](CO)NC2=O)C(=O)Cn2ccc(N)nc2=O)C(=O)Cn2ccc(N)nc2=O)c(=O)[nH]c1=O [WT8910, (DOTA-AEEA)8-PDAP^3-AEEA2-GCCAaCAGCTCC-AEEA-D(Cys-Ser-Lys-Cys)]	66.9 ± 0.5 °C	more than 5 fold	2 fold	0.012 ± 0.002 %ID/g	0.037 ± 0.006 %ID/g	0.043 ± 0.006 %ID/g	13.9 ± 2.11 %ID/g	0.104 ± 0.015 %ID/g	0.207 ± 0.031 %ID/g	0.03 ± 0.004 %ID/g	0.056 ± 0.009 %ID/g	0.113 ± 0.014 %ID/g	6.5 ± 1			
Cc1cn(CC(=O)N(CCNC(=O)CN(CCNC(=O)CN(CCNC(=O)CN(CCNC(=O)CN(CCNC(=O)CN(CCNC(=O)CN(CCNC(=O)CN(CCNC(=O)CN(CCNC(=O)CN(CCNC(=O)COCCOCCNC(=O)COCCOCCNC(=O)[C@H](CNC(=O)COCCOCCNC(=O)CN2CCN(CC(=O)O)CCN(CC(=O)O)CCN(CC(=O)O)CC2)NC(=O)COCCOCCNC(=O)CN2CCN(CC(=O)O)CCN(CC(=O)O)CCN(CC(=O)O)CC2)C(=O)Cn2cnc3c(=O)[nH]c(N)nc32)C(=O)Cn2ccc(N)nc2=O)C(=O)Cn2ccc(N)nc2=O)C(=O)Cn2cnc3c(N)ncnc32)C(=O)Cn2cnc3c(N)ncnc32)C(=O)Cn2ccc(N)nc2=O)C(=O)Cn2cnc3c(N)ncnc32)C(=O)Cn2cnc3c(=O)[nH]c(N)nc32)C(=O)Cn2ccc(N)nc2=O)CC(=O)NCCN(CC(=O)NCCN(CC(=O)NCCOCCOCC(=O)N[C@@H]2CSSC[C@H](C(N)=O)NC(=O)[C@@H](CCCCN)NC(=O)[C@@H](CO)NC2=O)C(=O)Cn2ccc(N)nc2=O)C(=O)Cn2ccc(N)nc2=O)c(=O)[nH]c1=O [WT5204, (DOTA-AEEA)2-PDAP^1-AEEA2-GCCAaCAGCTCC-AEEA-D(Cys-Ser-Lys-Cys)]	68.0 ± 1.2 °C			0.049 ± 0.005 %ID/g	0.042 ± 0.004 %ID/g	0.079 ± 0.008 %ID/g	19 ± 2.34 %ID/g	0.248 ± 0.033 %ID/g	0.093 ± 0.009 %ID/g	0.046 ± 0.006 %ID/g	0.105 ± 0.012 %ID/g	0.144 ± 0.014 %ID/g				
Cc1cn(CC(=O)N(CCNC(=O)CN(CCNC(=O)CN(CCNC(=O)CN(CCNC(=O)CN(CCNC(=O)CN(CCNC(=O)CN(CCNC(=O)CN(CCNC(=O)CN(CCNC(=O)CN(CCNC(=O)COCCOCCNC(=O)COCCOCCNC(=O)[C@H](CNC(=O)[C@H](CNC(=O)[C@H](CNC(=O)COCCOCCNC(=O)CN2CCN(CC(=O)O)CCN(CC(=O)O)CCN(CC(=O)O)CC2)NC(=O)COCCOCCNC(=O)CN2CCN(CC(=O)O)CCN(CC(=O)O)CCN(CC(=O)O)CC2)NC(=O)[C@H](CNC(=O)COCCOCCNC(=O)CN2CCN(CC(=O)O)CCN(CC(=O)O)CCN(CC(=O)O)CC2)NC(=O)COCCOCCNC(=O)CN2CCN(CC(=O)O)CCN(CC(=O)O)CCN(CC(=O)O)CC2)NC(=O)[C@H](CNC(=O)[C@H](CNC(=O)COCCOCCNC(=O)CN2CCN(CC(=O)O)CCN(CC(=O)O)CCN(CC(=O)O)CC2)NC(=O)COCCOCCNC(=O)CN2CCN(CC(=O)O)CCN(CC(=O)O)CCN(CC(=O)O)CC2)NC(=O)[C@H](CNC(=O)COCCOCCNC(=O)CN2CCN(CC(=O)O)CCN(CC(=O)O)CCN(CC(=O)O)CC2)NC(=O)COCCOCCNC(=O)CN2CCN(CC(=O)O)CCN(CC(=O)O)CCN(CC(=O)O)CC2)C(=O)Cn2cnc3c(=O)[nH]c(N)nc32)C(=O)Cn2ccc(N)nc2=O)C(=O)Cn2ccc(N)nc2=O)C(=O)Cn2cnc3c(N)ncnc32)C(=O)Cn2cc(C)c(=O)[nH]c2=O)C(=O)Cn2ccc(N)nc2=O)C(=O)Cn2cnc3c(N)ncnc32)C(=O)Cn2cnc3c(=O)[nH]c(N)nc32)C(=O)Cn2ccc(N)nc2=O)CC(=O)NCCN(CC(=O)NCCN(CC(=O)NCCOCCOCC(=O)N[C@@H]2CSSC[C@H](C(N)=O)NC(=O)[C@@H](CCCCN)NC(=O)[C@@H](CO)NC2=O)C(=O)Cn2ccc(N)nc2=O)C(=O)Cn2ccc(N)nc2=O)c(=O)[nH]c1=O [WT8900, (DOTA-AEEA)8-PDAP^3-AEEA2-GCCAtCAGCTCC-AEEA-D(Cys-Ser-Lys-Cys)]	75.9 ± 0.5 °C			0.018 ± 0.001 %ID/g	0.035 ± 0.005 %ID/g	0.048 ± 0.004 %ID/g	29.6 ± 9.21 %ID/g	0.152 ± 0.012 %ID/g	0.096 ± 0.021 %ID/g	0.04 ± 0.01 %ID/g	0.075 ± 0.005 %ID/g	0.143 ± 0.011 %ID/g				
(Gd-DOTA-AEEA)2-PDAP^1-AEEA2-GCCAaCAGCTCC-AEEA-D(Cys-Ser-Lys-Cys) (disulfide) [WT5512]	68.0 ± 1.0 °C															
Cc1cn(CC(=O)N(CCNC(=O)CN(CCNC(=O)CN(CCNC(=O)CN(CCNC(=O)CN(CCNC(=O)CN(CCNC(=O)CN(CCNC(=O)CN(CCNC(=O)CN(CCNC(=O)CN(CCNC(=O)COCCOCCNC(=O)COCCOCCNC(=O)[C@H](CNC(=O)COCCOCCNC(=O)CN2CCN(CC(=O)O)CCN(CC(=O)O)CCN(CC(=O)O)CC2)NC(=O)COCCOCCNC(=O)CN2CCN(CC(=O)O)CCN(CC(=O)O)CCN(CC(=O)O)CC2)C(=O)Cn2cnc3c(=O)[nH]c(N)nc32)C(=O)Cn2ccc(N)nc2=O)C(=O)Cn2ccc(N)nc2=O)C(=O)Cn2cnc3c(N)ncnc32)C(=O)Cn2cc(C)c(=O)[nH]c2=O)C(=O)Cn2ccc(N)nc2=O)C(=O)Cn2cnc3c(N)ncnc32)C(=O)Cn2cnc3c(=O)[nH]c(N)nc32)C(=O)Cn2ccc(N)nc2=O)CC(=O)NCCN(CC(=O)NCCN(CC(=O)NCCOCCOCC(=O)N[C@@H]2CSSC[C@H](C(N)=O)NC(=O)[C@@H](CCCCN)NC(=O)[C@@H](CO)NC2=O)C(=O)Cn2ccc(N)nc2=O)C(=O)Cn2ccc(N)nc2=O)c(=O)[nH]c1=O [WT5195, (DOTA-AEEA)2-PDAP^1-AEEA2-GCCAtCAGCTCC-AEEA-D(Cys-Ser-Lys-Cys)]	78.7 ± 0.6 °C			0.02 ± 0.01 %ID/g	0.028 ± 0.008 %ID/g	0.048 ± 0.007 %ID/g	18.4 ± 1.89 %ID/g	0.147 ± 0.015 %ID/g	0.217 ± 0.257 %ID/g	0.038 ± 0.007 %ID/g	0.079 ± 0.006 %ID/g	0.135 ± 0.034 %ID/g		not detected	less than 1%	more than 99%
